In US20200109196A1 (MOGAM INSTITUTE FOR BIOMEDICAL RESEARCH, published 2020):

T1: recombinant human CEACAM-5/CD66e protein (R&D systems; Cat. No. 4128-CM) (human, UniProt P06731 35-685)
T1 construct: Bought protein; also called HCCM5
T1 sequence (looked up): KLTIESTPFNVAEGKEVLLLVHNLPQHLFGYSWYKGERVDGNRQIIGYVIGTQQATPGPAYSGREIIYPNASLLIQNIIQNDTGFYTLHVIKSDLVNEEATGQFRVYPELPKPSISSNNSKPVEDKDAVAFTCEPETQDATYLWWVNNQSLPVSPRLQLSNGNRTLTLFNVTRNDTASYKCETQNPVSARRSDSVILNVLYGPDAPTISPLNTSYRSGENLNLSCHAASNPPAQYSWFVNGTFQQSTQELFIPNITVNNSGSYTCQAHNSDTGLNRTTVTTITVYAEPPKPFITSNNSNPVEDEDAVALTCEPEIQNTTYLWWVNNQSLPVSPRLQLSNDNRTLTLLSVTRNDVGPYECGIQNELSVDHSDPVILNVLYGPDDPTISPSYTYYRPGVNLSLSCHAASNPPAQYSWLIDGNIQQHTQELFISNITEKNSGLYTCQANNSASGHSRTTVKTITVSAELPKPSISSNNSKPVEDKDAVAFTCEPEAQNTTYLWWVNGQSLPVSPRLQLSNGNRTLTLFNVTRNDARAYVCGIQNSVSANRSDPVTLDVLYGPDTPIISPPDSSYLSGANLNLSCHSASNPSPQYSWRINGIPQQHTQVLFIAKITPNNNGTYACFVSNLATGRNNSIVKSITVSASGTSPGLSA

T2: recombinant human CEACAM-3/CD66d protein (Sino Biological; Cat. No. 11933-H08H) (human, UniProt P40198 35-155)
T2 construct: Bought protein; also called HCCM3
T2 sequence (looked up): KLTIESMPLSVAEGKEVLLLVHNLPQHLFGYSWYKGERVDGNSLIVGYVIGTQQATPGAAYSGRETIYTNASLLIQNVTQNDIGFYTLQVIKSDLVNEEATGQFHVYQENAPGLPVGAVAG

T3: human CEACAM1 expressed on the cell surface (CEACAM1-Jurkat T cells); HEK293 cells transfected with human … (human, UniProt P13688 35-526)
T3 construct: whole, on cells; also called CCM1
T3 sequence (looked up): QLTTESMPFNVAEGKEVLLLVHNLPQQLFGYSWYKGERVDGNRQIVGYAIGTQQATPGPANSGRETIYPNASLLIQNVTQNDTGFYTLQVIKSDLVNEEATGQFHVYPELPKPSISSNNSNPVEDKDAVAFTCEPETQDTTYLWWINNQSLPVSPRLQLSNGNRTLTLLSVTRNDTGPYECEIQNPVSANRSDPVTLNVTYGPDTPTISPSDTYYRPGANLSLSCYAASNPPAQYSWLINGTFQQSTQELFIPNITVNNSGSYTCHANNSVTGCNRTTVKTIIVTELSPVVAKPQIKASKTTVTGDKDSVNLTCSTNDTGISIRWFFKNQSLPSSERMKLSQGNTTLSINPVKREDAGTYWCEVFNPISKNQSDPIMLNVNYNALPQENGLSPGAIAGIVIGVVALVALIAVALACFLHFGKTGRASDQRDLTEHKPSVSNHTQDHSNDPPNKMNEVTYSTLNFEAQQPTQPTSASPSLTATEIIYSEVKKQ


Tests used:
[1] = molecular target: T1, recombinant human CEACAM-5/CD66e …; assay: ELISA on coated antigen (0.25 µg/ml), HRP anti-human IgG Fab, OD450
Excerpt: (§1) All of the recombinant human CEACAM-1/CD66a protein (R&D systems; Cat. No. 2244-CM, HCCM1), recombinant human CEACAM-5/CD66e protein (R&D systems; Cat. No. 4128-CM, HCCM5), recombinant human CEACAM-6/CD66c protein (R&D systems; Cat. No. 3934-CM, HCCM6), recombinant human CEACAM-3/CD66d protein (Sino Biological; Cat. No. 11933-H08H, HCCM3), recombinant mouse PD-1 Fc chimeric protein (R&D systems; Cat. No. 1021-PD, mPD-1-Fc), recombinant CEACAM1-Fc (IgG4) protein (Mogam, in-house production, HCCM1-Fc), recombinant human CEACAM-1/CD66a protein Bulk (R&D systems; Cat. No. 2244-CM, HCCM1 (bulk)) and mouse CEACAM1/CD66a protein (Sino Biological; Cat. No. 50571-M08H, mouse CCM1) (2.5 μg each) were dissolved in 10 ml of PBS, respectively and dispensed into a 96-well plate (Nunc; Cat. No. 467679) at 100 μl/well, which was incubated overnight at 4° C. Thereafter, each well was treated with 300 μl of 1% (v/v) bovine serum albumin, which was incubated at 37° C. for 1 hour.
(§2) The diluted antibodies were dispensed into each well coated with each protein at 100 μl/well, which was incubated at 37° C. for 1 hour. Then, each well was washed 3 times with a washing buffer prepared by diluting 10 μl of Tween 20 (Sigma-Aldrich; Cat. No. P9146) in 990 μl of PBS. Thereafter, 2 μl of HRP-conjugated human anti-IgG-Fab antibody (anti-human IgG Fab; Sigma; Cat. No. A0293) was diluted in 10 ml of PBS, added to the wells at 100 μl/well, and incubated for 1 hour.
(§3) After completion of the reaction, the wells were washed three times with the washing buffer, and 100 μl of TMB solution was added to each well to induce color development. Then, 100 μl of 2 M H₂SO₄ was added to each well to stop the reaction, and the absorbance was measured at a wavelength of 450 nm.

[2] = molecular target: T2, recombinant human CEACAM-3/CD66d …; assay: as above
Excerpt: as §1, §2, §3

[3] = molecular target: T3, human CEACAM1 expressed on the cell …; assay: flow cytometry on CEACAM1-Jurkat T cells, PE goat anti-human F(ab)2, MFI [b]
Description: The CEACAM1-Jurkat T cells prepared above were treated with Fc block solution and incubated for 15 minutes. […] Herein, it is noted that the cell numbers were adjusted to 1×10⁵. The cells incubated with the antibodies were repeatedly subjected to the washing procedure of resuspending the cells in a FACS buffer and centrifuging the solution at 1,500 rpm.
PE-conjugated goat anti-human F(ab)₂; (Sigma; Cat. No. P8047)) was diluted in the FACS buffer at a volume ratio of 1:200, and then added to the cells at 100 μl/well. Cells were resuspended well and incubated at 4° C. for 30 minutes in a dark condition.
The cells incubated with the fixation buffer were repeatedly subjected to the washing procedure of resuspending the cells in a FACS buffer, centrifuging the solution at 1,500 rpm, and discarding the supernatant. The washed cells were resuspended in 200 μl of a FACS buffer, and the mean fluorescence intensities (MFIs) of the PE-labeled cells were monitored by a FACS LSR-Fortessa. All FACS analyses were conducted using the FlowJo software.

Row | Binder | binding result [1] | binding result [2] | EC50 (read off the curve) [3] [µg/mL]
1 | C18 (antibody, human IgG4 S228P, lambda, V domains shown) VH: EVQLLESGGGLVQPGGSLRLSCAASGFTFSNYDMSWVRQAPGKGLEWVSGISHSSGSKYYADSVKGRFTISRDNSKNTLYLQMNSLRAEDTAVYYCARDPLPCLIPKCSYYYAMDVWGQGTLVTVSS VL: QSVLTQPPSAPGTPGQRVTISCSGSSSNIGSNAVTWYQQLPGTAPKLLIYADSHRPSGVPDRFSGSKSGTSASLAISGLRSEDEADYYCGSWDDSLNAYVFGGGTKLTVLG | no binding (tested: 3 µg/ml (single concentration)) | – | –
2 | C19 (antibody, human IgG4 S228P, lambda, V domains shown) VH: EVQLLESGGGLVQPGGSLRLSCAASGFTFSGYAMSWVRQAPGKGLEWVSGIYHDGGSTYYADSVKGRFTISRDNSKNTLYLQMNSLRAEDTAVYYCARVTVLCTTYGCSSYDGMDVWGQGTLVTVSS VL: not shown | – | no binding (tested: 3 µg/ml (single concentration)) | –
3 | C15 (antibody, human IgG4 S228P, lambda, V domains shown) VH: EVQLLESGGGLVQPGGSLRLSCAASGFTFSSYSMSWVRQAPGKGLEWVSSISPNGGNKYYADSVKGRFTISRDNSKNTLYLQMNSLGAEDTAVYYCAKDPYNIYQPLFDYWGQGTLVTVSS VL: QSVLTQPLSASGTPGQRVTISCSGSSSNIGNNYVNWYQQLPGTAPKLLIYANSNRPSGVPDRFSGSKSGTSASLAISGLRSEEEADYYCGTWDASLSAYVFGGGTKLTVLG | no binding (tested: 3 µg/ml (single concentration)) | – | –
4 | C25 (antibody, human IgG4 S228P, lambda, V domains shown, Made in ExpiHEK293F cells, protein A purified. huIgG4 is the isotype control and anti-huIgG4 the detection reagent; the isotype is not otherwise stated; also called anti-CEACAM1 antibody C25) VH: EVQLLESGGGLVQPGGSLRLSCAASGFTFSNYAMSWVRQAPGKGLEWVSVISHGGGSIYYADSVKGRLTISRDNSKNTLYLQMNSLRAEDTAVYYCARDPTKGYAPTFDYWGQGTLVTVSS VL: QSVLTQPPSASGTPGQRVTISCSGSSSNIGNNYVSWYQQLPGTAPKLLIYADSKRPSGVPDRFSGSKSGTSASLAISGLRSEDEADYYCGAWDASLNGYVFGGGTKLTVLG | no binding (tested: 3 µg/ml (single concentration)) | no binding (tested: 3 µg/ml (single concentration)) | ~0.6
5 | 4R26 (antibody, human IgG4 S228P, lambda, V domains shown, also called C25-derived clone 4R26) VH: EVQLLESGGGLVQPGGSLRLSCAASGFTFSNYAMSWVRQAPGKGLEWVSVISHGGGSIYYADSVKGRLTISRDNSKNTLYLQMNSLRAEDTAVYYCARDPTKGYAPTFDYWGQGTLVTVSS VL: QSVLTQPPSASGTPGQRVTISCSGSSSNIGNNYVSWYQQLPGTAPKLLIYADSKRLSGVPDRFSGSKSGTSASLAISGLRSEDEADYYCGAWDGRLNGYVFGGGTKLTVLG | – | – | ~0.08
6 | C26 (antibody, human IgG4 S228P, lambda, V domains shown) VH: EVQLLESGGGLVQPGGSLRLSCAASGFTFSGYDMSWVRQAPGKGLEWVSWISYGGGSIYYADSVKGRFTISRDNSKNTLYLQMNSLRAEDTAVYYCAKDRLPQKAVRHSYANGMDVWGQGTLVTVSS VL: QSVLTQPPSASGTPGQRVTISCSGSSSNIGNNYVTWYQQLPGTAPKLLIYADSHRPSGVPDRFSGSKSGTSASLAISGLRSEDEADYYCGAWDYSLSGYVFGGGTKLTVLG | no binding (tested: 3 µg/ml (single concentration)) | no binding (tested: 3 µg/ml (single concentration)) | –
7 | 4R9 (antibody, human IgG4 S228P, lambda, V domains shown, also called C25-derived clone 4R9) VH: EVQLLESGGGLVQPGGSLRLSCAASGFTFSNYAMSWVRQAPGKGLEWVSVISHGGGSIYYADSVKGRLTISRDNSKNTLYLQMNSLRAEDTAVYYCARDPTKGYAPTFDYWGQGTLVTVSS VL: QSVLTQPPSASGTPGQRVTISCSGSSSNIGNNYVSWYQQLPGTAPKLLIYADSRRPSGVPDRFSGSKSGTSASLAISGLRSEDEADYYCGAWDLSLNGYVFGGGTKLTVLG | – | – | ~0.05
8 | 4R9_H2-2 (antibody, human IgG4 S228P, lambda, V domains shown, also called C25-derived clone 4R9_H2-2) VH: EVQLLESGGGLVQPGGSLRLSCAASGFTFSNYAMSWVRQAPGKGLEWVSVISHGGGSIYYADSVKGRLTISRDNSKNTLYLQMNSLRAEDTAVYYCARDPTKGYAPLFDYWGQGTLVTVSS VL: QSVLTQPPSASGTPGQRVTISCSGSSSNIGNNYVSWYQQLPGTAPKLLIYADSRRPSGVPDRFSGSKSGTSASLAISGLRSEDEADYYCGAWDLSLNGYVFGGGTKLTVLG | – | – | ~0.04
9 | 4R9_H4-n20 (antibody, human IgG4 S228P, lambda, V domains shown, also called C25-derived clone 4R9_H4-n20) VH: EVQLLESGGGLVQPGGSLRLSCAASGFNFSNYAMSWVRQAPGKGLEWVSVISHGGGSIYYADSVKGRLTISRDNSKNTLYLQMNSLRAEDTAVYYCARDPTKGYAPTFDYWGQGTLVTVSS VL: QSVLTQPPSASGTPGQRVTISCSGSSSNIGNNYVSWYQQLPGTAPKLLIYADSRRPSGVPDRFSGSKSGTSASLAISGLRSEDEADYYCGAWDLSLNGYVFGGGTKLTVLG | – | – | ~0.4
